In patent publication US20230012273A1 (Boehringer Ingelheim, published 2023):

T1: cynomolgus SIRPβ1v3 extracellular domain + His-tag (XP_005568593) (cynomolgus monkey)
T1 construct: also called Cyno SIRPβ1v3; cynoSIRPβ1v3
T1 chain: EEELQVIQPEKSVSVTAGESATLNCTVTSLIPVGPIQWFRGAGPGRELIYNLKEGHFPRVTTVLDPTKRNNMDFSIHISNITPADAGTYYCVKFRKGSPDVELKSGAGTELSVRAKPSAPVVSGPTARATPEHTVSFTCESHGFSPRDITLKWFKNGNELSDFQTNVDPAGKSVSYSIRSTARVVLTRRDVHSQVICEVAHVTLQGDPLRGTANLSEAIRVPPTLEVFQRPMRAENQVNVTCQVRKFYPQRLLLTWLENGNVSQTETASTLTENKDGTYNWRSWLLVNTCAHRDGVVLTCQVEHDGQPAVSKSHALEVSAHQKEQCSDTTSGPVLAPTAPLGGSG

T2: cynomolgus SIRPα extracellular domain + His-tag (XP_015313155) (cynomolgus monkey)
T2 construct: also called CySIRPα XP_015313155; cynoSIRPα
T2 chain: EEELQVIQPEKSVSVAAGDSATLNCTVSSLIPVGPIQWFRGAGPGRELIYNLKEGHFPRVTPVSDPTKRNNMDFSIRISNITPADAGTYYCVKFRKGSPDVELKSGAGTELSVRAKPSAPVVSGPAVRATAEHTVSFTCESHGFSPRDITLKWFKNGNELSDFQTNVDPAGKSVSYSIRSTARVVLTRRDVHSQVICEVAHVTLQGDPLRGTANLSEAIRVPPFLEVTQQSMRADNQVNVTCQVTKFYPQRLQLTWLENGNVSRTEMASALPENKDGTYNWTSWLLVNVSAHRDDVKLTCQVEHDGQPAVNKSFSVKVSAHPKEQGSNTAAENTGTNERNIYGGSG

T3: cynomolgus SIRPγ extracellular domain + His-tag (XP_005568591) (cynomolgus monkey, UniProt Q9P1W8 29-359 (human entry))
T3 construct: also called Cyno SIRPγ; cynoSIRPγ
T3 chain: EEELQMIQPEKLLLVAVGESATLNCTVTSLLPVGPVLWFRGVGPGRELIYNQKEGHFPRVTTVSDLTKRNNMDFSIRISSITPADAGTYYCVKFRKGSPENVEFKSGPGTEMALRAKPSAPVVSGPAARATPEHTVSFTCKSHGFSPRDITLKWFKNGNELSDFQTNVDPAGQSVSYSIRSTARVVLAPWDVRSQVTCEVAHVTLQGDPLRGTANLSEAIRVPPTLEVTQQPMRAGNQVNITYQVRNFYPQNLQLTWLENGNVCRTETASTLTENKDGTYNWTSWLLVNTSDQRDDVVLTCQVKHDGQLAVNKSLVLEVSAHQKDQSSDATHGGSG

T4: cynomolgus SIRPα extracellular domain + His-tag (EGM_02252) (cynomolgus monkey)
T4 construct: also called CySIRPα EGM_02252; cynoSIRPα
T4 chain: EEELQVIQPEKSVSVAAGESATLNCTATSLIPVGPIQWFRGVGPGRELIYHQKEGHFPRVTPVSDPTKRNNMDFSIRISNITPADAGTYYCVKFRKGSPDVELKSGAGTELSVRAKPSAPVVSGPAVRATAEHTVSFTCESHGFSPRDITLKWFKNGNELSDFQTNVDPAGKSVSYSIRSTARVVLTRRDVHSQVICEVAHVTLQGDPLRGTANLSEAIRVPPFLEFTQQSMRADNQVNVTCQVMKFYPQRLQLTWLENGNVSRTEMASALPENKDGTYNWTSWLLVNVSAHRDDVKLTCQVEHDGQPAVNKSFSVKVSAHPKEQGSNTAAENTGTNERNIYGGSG

T5: cynomolgus SIRPβ1 extracellular domain + His-tag (XP_005568598) (cynomolgus monkey)
T5 construct: also called Cyno SIRPβ1; cynoSIRPβ1
T5 chain: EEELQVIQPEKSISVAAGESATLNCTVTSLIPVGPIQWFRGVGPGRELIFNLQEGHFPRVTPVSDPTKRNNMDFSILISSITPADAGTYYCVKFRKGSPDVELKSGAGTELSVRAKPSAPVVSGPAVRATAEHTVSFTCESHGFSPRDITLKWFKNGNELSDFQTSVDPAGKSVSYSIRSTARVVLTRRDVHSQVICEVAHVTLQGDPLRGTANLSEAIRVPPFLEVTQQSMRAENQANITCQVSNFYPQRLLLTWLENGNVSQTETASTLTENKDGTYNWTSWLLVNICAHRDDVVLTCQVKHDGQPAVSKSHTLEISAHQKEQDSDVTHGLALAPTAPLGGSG


Key:
Test in all cases: SPR, Ab captured, ECD-His analyte
[1] = target: T1, cynomolgus SIRPβ1v3 extracellular …
Method: (§1) The binding affinity of anti-SIRPα antibodies to the various SIRPα analytes is determined by surface plasmon resonance (SPR) using a ProteOn XPR36 (Bio-Rad). The running buffer for this experiment and all dilutions (except where stated) are done in 1×HBS-EP+. […] The sensorchip is deactivated with 1M ethanolamine HCl for 420 sec at a flowrate of 10 μl/min.
(§2) The analyte is injected over the captured antibody for 300 sec at a flowrate of 30 μl/min. The dissociation is done for 600 sec. Two-fold serial dilutions of each SIRP protein (Extracellular Domain+His-Tag) are injected as analyte with the highest concentrations indicated in table 36 below.

[2] = target: T2, cynomolgus SIRPα extracellular domain + …
Method: as §1, §2

[3] = target: T3, cynomolgus SIRPγ extracellular domain + …
Method: as §1, §2

[4] = target: T4, cynomolgus SIRPα extracellular domain + …
Method: as §1, §2

[5] = target: T5, cynomolgus SIRPβ1 extracellular domain …
Method: as §1, §2

[6] = target: T6, human SIRPβ1 extracellular domain + His-tag (NP_006056.2) (human, UniProt O00241 30-371)
T6 construct: also called hSIRPβ1; HuSIRPβ1
T6 sequence (O00241 other isoform, or with tags, fused parts or gaps): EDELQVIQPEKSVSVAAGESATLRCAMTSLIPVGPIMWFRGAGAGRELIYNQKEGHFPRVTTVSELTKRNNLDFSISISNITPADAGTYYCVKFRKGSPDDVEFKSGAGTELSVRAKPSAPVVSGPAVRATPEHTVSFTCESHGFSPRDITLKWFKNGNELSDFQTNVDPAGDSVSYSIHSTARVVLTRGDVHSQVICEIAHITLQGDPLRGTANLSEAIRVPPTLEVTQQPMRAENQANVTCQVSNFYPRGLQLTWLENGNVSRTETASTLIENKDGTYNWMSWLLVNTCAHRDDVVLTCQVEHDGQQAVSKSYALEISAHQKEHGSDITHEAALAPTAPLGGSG
Method: as §1, §2

[7] = target: T7, human SIRPγ extracellular domain + His-tag (NP_061026.2) (human, UniProt Q9P1W8 29-360)
T7 construct: also called hSIRPγ; HuSIRPγ
T7 sequence (Q9P1W8 29-360): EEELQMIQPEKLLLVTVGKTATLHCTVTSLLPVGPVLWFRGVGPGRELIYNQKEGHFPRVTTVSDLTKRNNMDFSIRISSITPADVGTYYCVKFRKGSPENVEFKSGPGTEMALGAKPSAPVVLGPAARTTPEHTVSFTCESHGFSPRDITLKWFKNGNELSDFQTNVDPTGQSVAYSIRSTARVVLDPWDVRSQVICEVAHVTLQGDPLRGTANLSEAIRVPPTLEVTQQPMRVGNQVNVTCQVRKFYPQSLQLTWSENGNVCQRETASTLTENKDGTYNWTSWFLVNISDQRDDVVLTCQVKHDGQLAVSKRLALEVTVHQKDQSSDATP
Method: as §1, §2

[8] = target: T8, human SIRPβL/SIRPβ1v3 extracellular domain + His-tag (NP_001129316.1) (human, UniProt Q5TFQ8 30-371)
T8 construct: also called hSIRPβ1v3; HuSIRPβ1v3
T8 sequence (Q5TFQ8 other isoform, or with tags, fused parts or gaps): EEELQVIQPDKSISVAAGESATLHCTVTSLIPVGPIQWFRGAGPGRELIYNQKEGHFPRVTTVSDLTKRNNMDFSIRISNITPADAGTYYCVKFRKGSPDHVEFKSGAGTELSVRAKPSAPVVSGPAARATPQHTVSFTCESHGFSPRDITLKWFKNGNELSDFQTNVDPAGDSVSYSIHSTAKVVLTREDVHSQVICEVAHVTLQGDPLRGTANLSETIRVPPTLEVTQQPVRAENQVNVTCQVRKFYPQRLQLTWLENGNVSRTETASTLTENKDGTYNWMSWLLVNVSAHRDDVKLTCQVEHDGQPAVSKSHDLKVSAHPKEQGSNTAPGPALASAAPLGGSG
Method: as §1, §2

Binder	Kd [1] [nM]	Kd [2] [nM]	binding result [3]	Kd [4] [nM]	binding result [5]	binding result [6]	binding result [7]	binding result [8]	Kd [6] [nM]
Antibody A1 (antibody, human IgG1, kappa, L234A L235A, V domains shown, also called Antibody Al) VH: EVQLVESGGGLVQPGGSLRLSCAASGFTLSSYDMHWVRQAPGKGLEWVSAIGTAGDTYYTGSVKGRFTISRENAKNSLYLQMNSLRADDTAVYYCVRGGVWDDAFDIWGQGTMVTVSS VL: DIQMTQSPSSLSASVGDRVTITCRASQGINNYAAWFQQKPGKAPKSLIYTASSLHSGVPSKFSGSGSGTDFTLTISSLQPEDFATYYCQQYVSYPYTFGQGTKLEIKR	557	369	no binding (tested: 1000 nM)	543	no binding (tested: 1000 nM)	no binding (tested: 1000 nM)	no binding (tested: 1000 nM)	no binding (tested: 100 nM)	
Antibody A2 (antibody, human IgG1, kappa, L234A L235A, V domains shown) VH: EVQLVESGGGLVQPGGSLRLSCAASGFTLSSYDMHWVRQATGKGLEWVSAIGTAGDTYYTGSVKGRFTISRENAKNSLYLQMNSLRAADTAVYYCVRGGVWDDAFDIWGQGTMVTVSS VL: DIQMTQSPSSLSASVGDRVTITCRASQGINNYAAWFQQKPGKAPKSLIYTASSLHSGVPSKFSGSGSGTDFTLTISSLQPEDFATYYCQQYVSYPYTFGQGTKLEIKR	552	424	no binding (tested: 1000 nM)	584	no binding (tested: 1000 nM)		no binding (tested: 1000 nM)	no binding (tested: 100 nM)	77.5

Further lines, results first:

Kd [1] [nM]	Kd [2] [nM]	binding result [3]	Kd [4] [nM]	binding result [5]	binding result [6]	binding result [7]	binding result [8]	Kd [6] [nM]	Binder
564	438	no binding (tested: 1000 nM)	571	no binding (tested: 1000 nM)		no binding (tested: 1000 nM)	no binding (tested: 100 nM)	70.3	Antibody A3 (antibody, human IgG1, kappa, L234A L235A, V domains shown) VH: EVQLVESGGGLVQPGGSLRLSCAASGFTLSSYDMHWVRQATGKGLEWVSAIGTAGDTYYTGSVKGRFTISRENAKNSLYLQMNSLRASDTAVYYCVRGGVWDDAFDIWGQGTMVTVSS VL: DIQMTQSPSSLSASVGDRVTITCRASQGINNYAAWFQQKPGKAPKSLIYTASSLHSGVPSKFSGSGSGTDFTLTISSLQPEDFATYYCQQYVSYPYTFGQGTKLEIKR
469	366	no binding (tested: 1000 nM)	538	no binding (tested: 1000 nM)		no binding (tested: 1000 nM)	no binding (tested: 100 nM)	65.1	Antibody A6 (antibody, human IgG1, kappa, L234A L235A, V domains shown) VH: EVQLVESGGGLVQPGGSLRLSCAASGFTLSSYDMHWVRQAPGKGLEWVSAIGTAGDTYYTGSVKGRFTISRENAKNSLYLQMNSLRAEDTAVYYCVRGGVWDDAFDIWGQGTMVTVSS VL: DIQMTQSPSSLSASVGDRVTITCRASQGINNYAAWFQQKPGKAPKSLIYTASSLHSGVPSKFSGSGSGTDFTLTISSLQPEDFATYYCQQYVSYPYTFGQGTKLEIKR
494	389	no binding (tested: 1000 nM)	609	no binding (tested: 1000 nM)		no binding (tested: 1000 nM)	no binding (tested: 100 nM)	72.2	Antibody A7 (antibody, human IgG1, kappa, L234A L235A, V domains shown) VH: EVQLVESGGGLVQPGGSLRLSCAASGFTLSSYDMHWVRQATGKGLEWVSAIGTAGDTYYTGSVKGRFTISRENAKNSLYLQMNSLRAGDTAVYYCVRGGVWDDAFDIWGQGTMVTVSS VL: DIQMTQSPSSLSASVGDRVTITCRASQGINNYAAWFQQKPGKAPKSLIYTASSLHSGVPSKFSGSGSGTDFTLTISSLQPEDFATYYCQQYVSYPYTFGQGTKLEIKR
